Reference: patent publication US20260144882A1 (BIO THERA SOLUTIONS, published 2026)

T1: human Nectin-4 extracellular antigen hNectin-4-His (human, UniProt Q96NY8 32-349)
T1 construct: C-terminal 8xHis tag included
T1 sequence: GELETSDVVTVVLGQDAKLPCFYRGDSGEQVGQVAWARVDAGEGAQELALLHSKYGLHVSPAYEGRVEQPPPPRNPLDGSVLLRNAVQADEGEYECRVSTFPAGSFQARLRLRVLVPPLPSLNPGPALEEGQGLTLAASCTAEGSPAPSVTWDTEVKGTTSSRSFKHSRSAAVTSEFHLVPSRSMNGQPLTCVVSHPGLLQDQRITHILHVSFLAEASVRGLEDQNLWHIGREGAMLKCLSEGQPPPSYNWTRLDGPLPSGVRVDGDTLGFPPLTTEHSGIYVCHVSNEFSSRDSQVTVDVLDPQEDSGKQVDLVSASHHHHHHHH


Molecular target: T1, human Nectin-4 extracellular antigen …
Test: ELISA, phage scFv supernatant 1:50

| Binder | OD value [OD] |
| --- | --- |
| 1G8-2B3 scFv (scFv, V domains shown, phage clone supernatant) VH: EVQLVESGGGLVQPGGSLRLSCAASGYNFTTSAMSWVRQAPGKGLEWVSRIYQDSSTTDYADSVKGRFTISRDNSKNTLYLQMNSLRAEDTAVYYCARQTEDRSYGYDLDYWGQGTLVTVSS VL: DIQMTQSPSSLSASVGDRVTITCRASQGISSYLAWYQQKPGKAPKLLIYAASSLQSGVPSRFSGSGSGTDFTLTISSLQPEDFATYYCQQHYTTPPTFGQGTKVEIKR | 1.57 |
| 1G8-2C6 scFv (scFv, V domains shown, phage clone supernatant) VH: EVQLVESGGGLVQPGGSLRLSCAASGDNFSSYAMSWVRQAPGKGLEWVSRIYGSDSTPDYADSVKGRFTISRDNSKNTLYLQMNSLRAEDTAVYYCARQTEDRSYGYDLDYWGQGTLVTVSS VL: DIQMTQSPSSLSASVGDRVTITCRASQGISSYLAWYQQKPGKAPKLLIYAASSLQSGVPSRFSGSGSGTDFTLTISSLQPEDFATYYCQQHYTTPPTFGQGTKVEIKR | 1.58 |
| 1G8-2F9 scFv (scFv, V domains shown, phage clone supernatant) VH: EVQLVESGGGLVQPGGSLRLSCAASGYSFSNYAMSWVRQAPGKGLEWVSRISAWGSTNNYADSVKGRFTISRDNSKNTLYLQMNSLRAEDTAVYYCARQTEDRSYGYDLDYWGQGTLVTVSS VL: DIQMTQSPSSLSASVGDRVTITCRASQGISSYLAWYQQKPGKAPKLLIYAASSLQSGVPSRFSGSGSGTDFTLTISSLQPEDFATYYCQQHYTTPPTFGQGTKVEIKR | 1.56 |
| 1G8-2G8 scFv (scFv, V domains shown, phage clone supernatant) VH: EVQLVESGGGLVQPGGSLRLSCAASGFNFTNYAMSWVRQAPGKGLEWVSRISTYGDTTHYADSVKGRFTISRDNSKNTLYLQMNSLRAEDTAVYYCARQTEDRSYGYDLDYWGQGTLVTVSS VL: DIQMTQSPSSLSASVGDRVTITCRASQGISSYLAWYQQKPGKAPKLLIYAASSLQSGVPSRFSGSGSGTDFTLTISSLQPEDFATYYCQQHYTTPPTFGQGTKVEIKR | 1.58 |
| 1G8-2D7 scFv (scFv, V domains shown, phage clone supernatant) VH: EVQLVESGGGLVQPGGSLRLSCAASGDSFTSYAMSWVRQAPGKGLEWVSRISADSASPSYADSVKGRFTISRDNSKNTLYLQMNSLRAEDTAVYYCARQTEDRSYGYDLDYWGQGTLVTVSS VL: DIQMTQSPSSLSASVGDRVTITCRASQGISSYLAWYQQKPGKAPKLLIYAASSLQSGVPSRFSGSGSGTDFTLTISSLQPEDFATYYCQQHYTTPPTFGQGTKVEIKR | 1.54 |
| 1G8-2B5 scFv (scFv, V domains shown, phage clone supernatant) VH: EVQLVESGGGLVQPGGSLRLSCAASGYNFGNYAMSWVRQAPGKGLEWVSRIKSHDSTSHYADSVKGRFTISRDNSKNTLYLQMNSLRAEDTAVYYCARQTEDRSYGYDLDYWGQGTLVTVSS VL: DIQMTQSPSSLSASVGDRVTITCRASQGISSYLAWYQQKPGKAPKLLIYAASSLQSGVPSRFSGSGSGTDFTLTISSLQPEDFATYYCQQHYTTPPTFGQGTKVEIKR | 1.58 |
| 1G8-2G3 scFv (scFv, V domains shown, phage clone supernatant) VH: EVQLVESGGGLVQPGGSLRLSCAASGFIFGGNAMSWVRQAPGKGLEWVSRISSDKGTTNYADSVKGRFTISRDNSKNTLYLQMNSLRAEDTAVYYCARQTEDRSYGYDLDYWGQGTLVTVSS VL: DIQMTQSPSSLSASVGDRVTITCRASQGISSYLAWYQQKPGKAPKLLIYAASSLQSGVPSRFSGSGSGTDFTLTISSLQPEDFATYYCQQHYTTPPTFGQGTKVEIKR | 1.58 |
| 1G8-2E7 scFv (scFv, V domains shown, phage clone supernatant) VH: EVQLVESGGGLVQPGGSLRLSCAASGYTFGNYAMSWVRQAPGKGLEWVSRISPSTWNIDYADSVKGRFTISRDNSKNTLYLQMNSLRAEDTAVYYCARQTEDRSYGYDLDYWGQGTLVTVSS VL: DIQMTQSPSSLSASVGDRVTITCRASQGISSYLAWYQQKPGKAPKLLIYAASSLQSGVPSRFSGSGSGTDFTLTISSLQPEDFATYYCQQHYTTPPTFGQGTKVEIKR | 1.56 |
| 1G8-2D6 scFv (scFv, V domains shown, phage clone supernatant) VH: EVQLVESGGGLVQPGGSLRLSCAASGFSFDGYAMSWVRQAPGKGLEWVSRISAHSWNKDYADSVKGRFTISRDNSKNTLYLQMNSLRAEDTAVYYCARQTEDRSYGYDLDYWGQGTLVTVSS VL: DIQMTQSPSSLSASVGDRVTITCRASQGISSYLAWYQQKPGKAPKLLIYAASSLQSGVPSRFSGSGSGTDFTLTISSLQPEDFATYYCQQHYTTPPTFGQGTKVEIKR | 1.63 |
| 1G8-2C7 scFv (scFv, V domains shown, phage clone supernatant) VH: EVQLVESGGGLVQPGGSLRLSCAASGYSFTNFAMSWVRQAPGKGLEWVSRISQDGGNKNYADSVKGRFTISRDNSKNTLYLQMNSLRAEDTAVYYCARQTEDRSYGYDLDYWGQGTLVTVSS VL: DIQMTQSPSSLSASVGDRVTITCRASQGISSYLAWYQQKPGKAPKLLIYAASSLQSGVPSRFSGSGSGTDFTLTISSLQPEDFATYYCQQHYTTPPTFGQGTKVEIKR | 1.58 |
| 1G8-2D9 scFv (scFv, V domains shown, phage clone supernatant) VH: EVQLVESGGGLVQPGGSLRLSCAASGDIFDGYSMSWVRQAPGKGLEWVSRIDTGGSVKNYADSVKGRFTISRDNSKNTLYLQMNSLRAEDTAVYYCARQTEDRSYGYDLDYWGQGTLVTVSS VL: DIQMTQSPSSLSASVGDRVTITCRASQGISSYLAWYQQKPGKAPKLLIYAASSLQSGVPSRFSGSGSGTDFTLTISSLQPEDFATYYCQQHYTTPPTFGQGTKVEIKR | 1.54 |
| 1G8-2G4 scFv (scFv, V domains shown, phage clone supernatant) VH: EVQLVESGGGLVQPGGSLRLSCAASGFTFGGYSMSWVRQAPGKGLEWVSRISTDGAYTNYADSVKGRFTISRDNSKNTLYLQMNSLRAEDTAVYYCARQTEDRSYGYDLDYWGQGTLVTVSS VL: DIQMTQSPSSLSASVGDRVTITCRASQGISSYLAWYQQKPGKAPKLLIYAASSLQSGVPSRFSGSGSGTDFTLTISSLQPEDFATYYCQQHYTTPPTFGQGTKVEIKR | 1.58 |
| 1G8-2D11 scFv (scFv, V domains shown, phage clone supernatant) VH: EVQLVESGGGLVQPGGSLRLSCAASGYSFSGNAMSWVRQAPGKGLEWVSRIDGWGSYTDYADSVKGRFTISRDNSKNTLYLQMNSLRAEDTAVYYCARQTEDRSYGYDLDYWGQGTLVTVSS VL: DIQMTQSPSSLSASVGDRVTITCRASQGISSYLAWYQQKPGKAPKLLIYAASSLQSGVPSRFSGSGSGTDFTLTISSLQPEDFATYYCQQHYTTPPTFGQGTKVEIKR | 1.53 |
| 1G8-2H3 scFv (scFv, V domains shown, phage clone supernatant) VH: EVQLVESGGGLVQPGGSLRLSCAASGYSFGGYAMSWVRQAPGKGLEWVSRISGIKAYNDYADSVKGRFTISRDNSKNTLYLQMNSLRAEDTAVYYCARQTEDRSYGYDLDYWGQGTLVTVSS VL: DIQMTQSPSSLSASVGDRVTITCRASQGISSYLAWYQQKPGKAPKLLIYAASSLQSGVPSRFSGSGSGTDFTLTISSLQPEDFATYYCQQHYTTPPTFGQGTKVEIKR | 1.53 |
| 1G8-2B6 scFv (scFv, V domains shown, phage clone supernatant) VH: EVQLVESGGGLVQPGGSLRLSCAASGGSFGGYAMSWVRQAPGKGLEWVSRIYAYKSENDYADSVKGRFTISRDNSKNTLYLQMNSLRAEDTAVYYCARQTEDRSYGYDLDYWGQGTLVTVSS VL: DIQMTQSPSSLSASVGDRVTITCRASQGISSYLAWYQQKPGKAPKLLIYAASSLQSGVPSRFSGSGSGTDFTLTISSLQPEDFATYYCQQHYTTPPTFGQGTKVEIKR | 1.56 |
| 1G8-2H1 scFv (scFv, V domains shown, phage clone supernatant) VH: EVQLVESGGGLVQPGGSLRLSCAASGYSFYSYAMSWVRQAPGKGLEWVSRISQGGGVTHYADSVKGRFTISRDNSKNTLYLQMNSLRAEDTAVYYCARQTEDRSYGYDLDYWGQGTLVTVSS VL: DIQMTQSPSSLSASVGDRVTITCRASQGISSYLAWYQQKPGKAPKLLIYAASSLQSGVPSRFSGSGSGTDFTLTISSLQPEDFATYYCQQHYTTPPTFGQGTKVEIKR | 1.58 |
| 1G8-2F2 scFv (scFv, V domains shown, phage clone supernatant) VH: EVQLVESGGGLVQPGGSLRLSCAASGDIFGSYAMSWVRQAPGKGLEWVSRISSHGASRDYADSVKGRFTISRDNSKNTLYLQMNSLRAEDTAVYYCARQTEDRSYGYDLDYWGQGTLVTVSS VL: DIQMTQSPSSLSASVGDRVTITCRASQGISSYLAWYQQKPGKAPKLLIYAASSLQSGVPSRFSGSGSGTDFTLTISSLQPEDFATYYCQQHYTTPPTFGQGTKVEIKR | 1.6 |
| 1G8-2F11 scFv (scFv, V domains shown, phage clone supernatant) VH: EVQLVESGGGLVQPGGSLRLSCAASGYTFGSNAMSWVRQAPGKGLEWVSRISPDSSGISYADSVKGRFTISRDNSKNTLYLQMNSLRAEDTAVYYCARQTEDRSYGYDLDYWGQGTLVTVSS VL: DIQMTQSPSSLSASVGDRVTITCRASQGISSYLAWYQQKPGKAPKLLIYAASSLQSGVPSRFSGSGSGTDFTLTISSLQPEDFATYYCQQHYTTPPTFGQGTKVEIKR | 1.57 |
| 1G8-2B10 scFv (scFv, V domains shown, phage clone supernatant) VH: EVQLVESGGGLVQPGGSLRLSCAASGFSFTNNAMSWVRQAPGKGLEWVSRIDTIGGTSSYADSVKGRFTISRDNSKNTLYLQMNSLRAEDTAVYYCARQTEDRSYGYDLDYWGQGTLVTVSS VL: DIQMTQSPSSLSASVGDRVTITCRASQGISSYLAWYQQKPGKAPKLLIYAASSLQSGVPSRFSGSGSGTDFTLTISSLQPEDFATYYCQQHYTTPPTFGQGTKVEIKR | 1.56 |
| 1G8-2G9 scFv (scFv, V domains shown, phage clone supernatant) VH: EVQLVESGGGLVQPGGSLRLSCAASGYIFTNYAMSWVRQAPGKGLEWVSRISQSGGTNDYADSVKGRFTISRDNSKNTLYLQMNSLRAEDTAVYYCARQTEDRSYGYDLDYWGQGTLVTVSS VL: DIQMTQSPSSLSASVGDRVTITCRASQGISSYLAWYQQKPGKAPKLLIYAASSLQSGVPSRFSGSGSGTDFTLTISSLQPEDFATYYCQQHYTTPPTFGQGTKVEIKR | 1.54 |
| 1G8-2G7 scFv (scFv, V domains shown, phage clone supernatant) VH: EVQLVESGGGLVQPGGSLRLSCAASGGTFYTYAMSWVRQAPGKGLEWVSRIYSTKGTPDYADSVKGRFTISRDNSKNTLYLQMNSLRAEDTAVYYCARQTEDRSYGYDLDYWGQGTLVTVSS VL: DIQMTQSPSSLSASVGDRVTITCRASQGISSYLAWYQQKPGKAPKLLIYAASSLQSGVPSRFSGSGSGTDFTLTISSLQPEDFATYYCQQHYTTPPTFGQGTKVEIKR | 1.49 |
